From the DeepSol protein solubility set

Assay: soluble on expression in E. coli; label from the status in PepcDB or PDB records
With “MGFMIEHWDFSTPMATQETTTAEHIQPNHWYHCERLHPDIRSWLEDNHVPRATVDHLLADESRPSFHPLDDDNFMLILRGINMNENASPEDMLSIRILYFQGALISTRKIPSRAIMEIRQALAEHKGPKSLASLLNQIIEGLNGKIDLYLDTIEETLNEFDVNDESTYNHIAAQKALISIKRFIRPQQYAIRDLIESESELVTSRPHQYRFAHNNITRINETIEFYLGEVALFQDEIKHNRDEKTNKNS” the “soluble on expression in E. coli” value was “soluble”.
In the case of “MGFNNLVSLAALIEKVFPIRYTPAGIPVLDIILKHESWQEENGQQCLVQLEIPARILGRQAEEWQYRQGVYVHVEGFLAQKSRRSLMPMLRIQNIQEYKG”, the “soluble on expression in E. coli” value is reported as “not soluble”.
With “MGGSHHHHHHGMASALGADGFVPLGTLLQLPQFRGFSAEDVQRVVDTNRKQRFALQLGDPSTGLLIRANQGHSLQVPKLELMPLETPQALPPMLVHGTFWKHWPSILLKGLSCQGRTHIHLAPGLPGDPGIISGMRSHCEIAVFIDGPLALADGIPFFRSANGVILTPGNTDGFLLPKYFKEALQLRPTRKPLSLAGDEETECQSSPKHSSRERRRIQQ” the “soluble on expression in E. coli” value was “not soluble”.
For “MGGWMSCAPPIYTPHTNSWTESGWDRTSWWRWSAQRWSGWSFKIVRANKALRVMAKTKMPLVLIPPSPNKPYSKLAINQELHLTPHKKTSPATSSSLKPRPGPRGYLNARLSWRCPTLSRKVRVPTIKVPMVRAPSTKPSKTSSSNNPWPLTPRMRG”, the “soluble on expression in E. coli” value was “soluble”.
With “MGHERDWSLVQVALTDITARKKAEAYLEYLGKHDVLTKLHNRAFYSDELNRLERSALRPVSAIVIDLNGLKEANDKLGHDAGDALLRRVGEVLNGVVTAPNHAARIGGDEFAILLPGADKQVAAAMVDTVYELLKINNQFYSSAPLSLSLGVATTEAGETMESLVRRADMNMYEQKNALEHHHHHH” the “soluble on expression in E. coli” value was “soluble”.
In the case of “MGHHHHHHGGHMSLKVLDFPSSKKAKELAVKYGYDEFIVRRWLHFFGDETEDIIRAFEEGIPKYIRINTLKIDEKGLLERLESRGFKLKKTEVPYCFEVVEEPYSIGATPEYLMGYYYVMDKSSCIPPLALEPKPGEVVVDLAASPGGKTTFLSMLMENKGAVIAVEPQKERLQPLIDNINRMGAMNVAVINVDGRRVPAMGIKADRVLLDAPCTGEGIIHKDPSRKTDRGKEDILFCSSLQRELVLAAFDCLKEGGVMVYSTCSLTPEENEFVVDFLLERRKGVVEEIEWGDEALALPGVKNEVSKARRFYPHRHQCSGFFVARIRKVGDSKAKPEEGGS”, the “soluble on expression in E. coli” value is reported as “soluble”.
With “MGHHHHHHHHHHSSGHIDDDDKHMVGATVAPSSRRDFTFDLYRALASAAPSQNIFFSPVSISMSLAMLSLGAGSSTKMQILEGLGLNLQKSSEKELHRGFQQLLQELNQPRDGFQLSLGNALFTDLVVDLQDTFVSAMKTLYLADTFPTNFRDSAGAMKQINDYVAKQTKGKIVDLLKNLDSNAVVIMVNYIFFKAKWETSFNHKGTQEQDFYVTSETVVRVPMMSREDQYHYLLDRNLSCRVVGVPYQGNATALFILPSEGKMQQVENGLSEKTLRKWLKMFKKRQLELYLPKFSIEGSYQLEKVLPSLGISNVFTSHADLSGISNHSNIQVSEMVHKAVVEVDESGTRAAAATGTIFTFRSARLNSQRLVFNRPFLMFIVDNNILFLGKVNRP” the “soluble on expression in E. coli” value was “soluble”.
In the case of “MGHHHHHHHHHHSSGHIEGRHIGSGVEAPEQLEEHGISVYATIPMSEWLDKRTRLRKKNLFSNQQRHRTKNIPFLAVDNPADSAVEAVRALRTSLHFAMMETENNILMITGATPDSGKTFVSSTLAAVIAQSDQKVLFIDADLRRGYSHNLFTVSNEHGLSEYLAGKDELNKVIQHFGKGGFDVITRGQVPPNPSELLMRDRMRQLLEWANDHYDLVIVDTPPMLAVSDAAVVGRSVGTSLLVARFGLNTAKEVSLSMQRLEQAGVNIKGAILNGVIKRASTAYSYGYNYYGYSYSEKE”, the “soluble on expression in E. coli” value is reported as “soluble”.
For “MGHHHHHHSHAPALGGQQSVSNKLLAWSGVLEWQEKPKPASVDANTKLTRSLPCQVYVNHGENLKTEQWPQKLIMQLIPQQLLTTLGPLFRNSRMVQFHFTNKDLESLKGLYRIMGNGFAGCVHFPHTAPCEVRVLMLLYSSKKKIFMGLIPYDQSGFVNGIRQVITNHKQVQQQKLEQQQRGMGGQQAPPGLGPILEDQARPSQNLLQLRPPQPQPQ”, the “soluble on expression in E. coli” value was “not soluble”.
For “MGHHHHHHSHDGQLFCKKDYWARYGESCHGCSEQITKGLVMVAGELKYHPECFICLTCGTFIGDGDTYTLVEHSKLYCGHCYYQTVVTPVIEQILPDSPGSHLPHTVTLVSIPASSHGKRGLSVSIDPPHGPPGCGTEHSHTVRVQGVDPGCMSPDVKNSIHVGDRILEINGTPIRNVPLDEIDLLIQETSRLLQLTLEHDP”, the “soluble on expression in E. coli” value was “not soluble”.
With “MGHHHHHHSHGFYTIKEAERGVVTRFGKFSHLVEPGLNWKPTFIDEVKPVNVEAVRELAASGVMLTSDENVVRVEMNVQYRVTNPEKYLYSVTSPDDSLRQATDSALRGVIGKYTMDRILTEGRTVIRSDTQRELEETIRPYDMGITLLDVNFQAARPPEEVKAAFDDAIAARENEQQYIREAEA” the “soluble on expression in E. coli” value was “soluble”.
For “MGHHHHHHSHLPTTNIGSFPQTTEIRHARASFKKGELSLADYEAAMKKEIEYVVRRQEELDLDVLVHGEAERNDMVEYFGELLDGFAFTKFGWVQSYGSRCVKPPVIYGDVTRPEPMTVRWSQYAQSLTNRVMKGMLTGPVTILQWSFVRNDIPRSTVCKQIGVALSDEVLDLEAAGIKVIQIDEPAIREGLPLKRADWDAYLQWAGEAFRLSSMGVQDDTQIHTHMCYSEFNDILPAIAALDADVITIETSRSDMELLTAFADFKYPNDIGPGVYDIHSPRVPTATEVEHLLRKALNVIPKERLWVNPDCGLKTRGWTETIDQLKVMVDVTKK”, the “soluble on expression in E. coli” value was “not soluble”.
For “MGHHHHHHSHLTVQFVPSQNAGTLEAKAKPLEKLLSKELGIPVKVSVSTNYNTIVEAMKSKKVDVGFLPPTAYTLAHDQKAADLLLQAQRFGVKEDGSASKELVDSYKSEILVKKDSKIKSLKDLKGKKIALQDVTSTAGYTFPLAMLKNEAGINATKDMKIVNVKGHDQAVISLLNGDVDAAAVFNDARNTVKKDQPNVFKDTRILKLTQAIPNDTISVRPDMDKDFQEKLKKAFIDIAKSKEGHKIISEVYSH”, the “soluble on expression in E. coli” value was “not soluble”.
With “MGHHHHHHSHMAAMLNFNLQQLCGPKCRDLKVENPEKYGFEPKKLLDQLTDIYLQLDCARFAKAIADDQRSYSKELFEEVISKMRKAGIKSTIAIEKFKLLAEKVEEIVAKNARAEIDYSDAPDEFRDPLMDTLMTDPVRLPSGTIMDRSIILRHLLNSPTDPFNRQTLTESMLEPVPELKEQIQAWMREKQNSDH” the “soluble on expression in E. coli” value was “soluble”.
In the case of “MGHHHHHHSHMAFPGQSDTKMQWPEVPALPLLSSLCMAMVRKSSALGKEVGRRVKEMVMLVAPFRQSSSLSRTFSSRKVVKAHASLHGARLSPLSRNIRG”, the “soluble on expression in E. coli” value is reported as “not soluble”.
With “MGHHHHHHSHMALAARLLPQFLHSRSLPCGAVRLRTPAVAEVRLPSATLCYFCRCRLGLGAALFPRSARALAASALPAQGSRWPVLSSPGLPAAFASFPACPQRSYSTEEKPQQHQKTKMIVLGFSNPINWVRTRIKAFLIWAYFDKEFSITEFSEGAKQAFAHVSKLLSQCKFDLLEELVAKEVLHALKEKVTSLPDNHKNALAANIDEIVFTSTGGISIYYDEKGRKFVNILMCFWYLTSANIPSETLRGASVFQVKLGNQNVETKQLLSASYEFQREFTQGVKPDWTIARIEHSKLLE” the “soluble on expression in E. coli” value was “not soluble”.
In the case of “MGHHHHHHSHMANSMANSLSSTQTDYRLSDDLLGPVLAILDAYIDPYLAKGLVSAGCVNKLAIEGKRLQLGLVYPYPCMTQYRDTVMALTNKLAVLDAIDEVECEIDFQPKVYSAIASIAPIANVKQVIAVASGKGGVGKSTTAVNLALALAAEGAQVGILDADIYGPSVPLMLGIPNFRPVSPDGKHMTAASAYGIAAQSIGFMLSGDEAAVWRGPMAAGALAQLLNETQWPELDYLVVDMPPGTGDIQLTLSQKVPVSGAVIVTTPQDIALADAKKGITMFQKVNIPVLGIVENMSFHLCPECGHKEHPFGTHGGSKMAERYQVPLLGALPLHINIREAMDVGAPTVVAEPDSEVAALYREIARKVGAELALKQSQKTVSISVSDDE”, the “soluble on expression in E. coli” value is reported as “not soluble”.
With “MGHHHHHHSHMASATQSVSRLQSIVAGLKNAPSDQLINIFESCVRNPVENIMKILKGIGETFCQHYTQSTDEQPGSHIDFAVNRLKLAEILYYKILETVMVQETRRLHGMDMSVLLEQDIFHRSLMACCLEIVLFAYSSPRTFPWIIEVLNLQPFYFYKVIEVVIRSEEGLSRDMVKHLNSIEEQILESLAWSHDS” the “soluble on expression in E. coli” value was “not soluble”.
